What was measured:
hcGAS-FL (D191R) = hcGAS-FL (D191R) (Homo sapiens, UniProt Q8N884 1-522, D191R); experiment: fluorescence polarization; D191R did not interfere with dsDNA binding; XQ2 inhibition markedly reduced; FP: 20 mM HEPES pH 7.5, 125 mM KCl, 10 mM MgCl2; 300 nM cGAS, 40 nM FAM-ISD; temperature not stated. MST conditions not given in the material; settings: protein: recombinant; tags: 6xHis-SUMO removed by ULP1; label: 5'-FAM on sense strand; blunt
hcGAS-FL = hcGAS-FL (Homo sapiens, UniProt Q8N884 1-522); experiment: fluorescence polarization; 300 nM protein, 40 nM DNA; XQ2 competes with IC50 19.2 ± 6.7 uM (inhibitor value, not DNA affinity); FP: 20 mM HEPES pH 7.5, 125 mM KCl, 10 mM MgCl2; 300 nM cGAS, 40 nM FAM-ISD; temperature not stated. MST conditions not given in the material; settings: protein: recombinant; tags: 6xHis-SUMO removed by ULP1; label: 5'-FAM on sense strand; blunt
Sequence of hcGAS-FL (Q8N884 whole entry): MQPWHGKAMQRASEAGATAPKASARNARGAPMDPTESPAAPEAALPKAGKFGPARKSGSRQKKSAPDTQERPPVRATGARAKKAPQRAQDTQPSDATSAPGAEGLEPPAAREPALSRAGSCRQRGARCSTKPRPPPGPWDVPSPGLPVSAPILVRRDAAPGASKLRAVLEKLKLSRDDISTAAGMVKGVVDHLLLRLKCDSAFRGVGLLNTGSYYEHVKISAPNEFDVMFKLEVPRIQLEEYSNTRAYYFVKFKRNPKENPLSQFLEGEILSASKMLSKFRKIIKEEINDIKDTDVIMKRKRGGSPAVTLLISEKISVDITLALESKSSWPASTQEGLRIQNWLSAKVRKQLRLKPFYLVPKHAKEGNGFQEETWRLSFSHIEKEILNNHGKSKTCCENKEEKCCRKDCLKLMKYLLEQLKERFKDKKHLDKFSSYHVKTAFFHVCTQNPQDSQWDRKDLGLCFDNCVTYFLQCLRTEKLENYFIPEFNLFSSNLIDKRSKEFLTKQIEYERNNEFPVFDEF

Sequence of hcGAS-FL (D191R) (Q8N884 whole entry D191R): as the sequence (Q8N884 whole entry) above, with D191R counted along it

B1: 45-bp FAM-ISD (dsDNA)
DNA 1: TACAGATCTACTAGTGATCTATGACTGATCTGTACATGATCTACA
DNA 2: TGTAGATCATGTACAGATCAGTCATAGATCACTAGTAGATCTGTA
- binding result (hcGAS-FL (D191R)): binds
- binding result (hcGAS-FL): binds
